The target in this experiment is rat CRF2R α receptor (rat, UniProt P47866 20-411). Briefly: cell-based or functional assay.

Starred links: 1 amine or outer side, 2 acyl side, 3 side chain; linkers in the order of their positions; H or OH if unused. Non-standard residues stand in square brackets, D forms with d. Groups on a side chain read outwards from the residue. No end group written: not given here. *: point of attachment. C18 diacid = O=C(O)CCCCCCCCCCCCCCCCC(=O)*; γGlu = O=C(O)[C@H](CCC(=O)[*:2])N[*:1]; Palmitoyl = CCCCCCCCCCCCCCCC(=O)*; AEEA = NCCOCCOCC(=O)O; Aib = CC(C)(N)C(=O)O

Chain of rat CRF2R α receptor (P47866 20-411): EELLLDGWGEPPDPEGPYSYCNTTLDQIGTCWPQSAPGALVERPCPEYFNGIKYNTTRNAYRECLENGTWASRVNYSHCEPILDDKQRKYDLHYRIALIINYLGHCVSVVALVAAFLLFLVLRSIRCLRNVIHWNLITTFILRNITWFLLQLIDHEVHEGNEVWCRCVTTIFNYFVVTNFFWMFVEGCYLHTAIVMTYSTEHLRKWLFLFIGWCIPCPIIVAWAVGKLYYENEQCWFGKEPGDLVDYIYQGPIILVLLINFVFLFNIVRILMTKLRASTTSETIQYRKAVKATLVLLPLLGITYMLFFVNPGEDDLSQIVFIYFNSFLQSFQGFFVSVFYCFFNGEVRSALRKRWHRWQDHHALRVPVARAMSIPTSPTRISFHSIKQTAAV

B1: peptide of SEQ ID NO: 43 (peptide)
peptide: IVLSLDVPIKLK([AEEA-AEEA-γGlu-C18 diacid])QILLEQAKQKKLRAQAETNVRILERV-NH2
modifications: N-terminus assumed
SMILES: CC[C@H](C)[C@H](N)C(=O)N[C@H](C(=O)N[C@@H](CC(C)C)C(=O)N[C@@H](CO)C(=O)N[C@@H](CC(C)C)C(=O)N[C@@H](CC(=O)O)C(=O)N[C@H](C(=O)N1CCC[C@H]1C(=O)N[C@H](C(=O)N[C@@H](CCCCN)C(=O)N[C@@H](CC(C)C)C(=O)N[C@@H](CCCCNC(=O)COCCOCCNC(=O)COCCOCCNC(=O)CC[C@H](NC(=O)CCCCCCCCCCCCCCCCC(=O)O)C(=O)O)C(=O)N[C@@H](CCC(N)=O)C(=O)N[C@H](C(=O)N[C@@H](CC(C)C)C(=O)N[C@@H](CC(C)C)C(=O)N[C@@H](CCC(=O)O)C(=O)N[C@@H](CCC(N)=O)C(=O)N[C@@H](C)C(=O)N[C@@H](CCCCN)C(=O)N[C@@H](CCC(N)=O)C(=O)N[C@@H](CCCCN)C(=O)N[C@@H](CCCCN)C(=O)N[C@@H](CC(C)C)C(=O)N[C@@H](CCCNC(=N)N)C(=O)N[C@@H](C)C(=O)N[C@@H](CCC(N)=O)C(=O)N[C@@H](C)C(=O)N[C@@H](CCC(=O)O)C(=O)N[C@H](C(=O)N[C@@H](CC(N)=O)C(=O)N[C@H](C(=O)N[C@@H](CCCNC(=N)N)C(=O)N[C@H](C(=O)N[C@@H](CC(C)C)C(=O)N[C@@H](CCC(=O)O)C(=O)N[C@@H](CCCNC(=N)N)C(=O)N[C@H](C(N)=O)C(C)C)[C@@H](C)CC)C(C)C)[C@@H](C)O)[C@@H](C)CC)[C@@H](C)CC)C(C)C)C(C)C
With B1, the “EC50 [nM], 0% HSA (cAMP, A7R5 cells)” value was determined as 11.5 nM.

B2: peptide of SEQ ID NO: 36 (peptide)
peptide: IVLSLD[dV]PTKLK([AEEA-AEEA-γGlu-C18 diacid])QKLLKQERQRK[Aib]REQAEKNKRILERV-NH2
modifications: N-terminus assumed
SMILES: CC[C@H](C)[C@H](N)C(=O)N[C@H](C(=O)N[C@@H](CC(C)C)C(=O)N[C@@H](CO)C(=O)N[C@@H](CC(C)C)C(=O)N[C@@H](CC(=O)O)C(=O)N[C@@H](C(=O)N1CCC[C@H]1C(=O)N[C@H](C(=O)N[C@@H](CCCCN)C(=O)N[C@@H](CC(C)C)C(=O)N[C@@H](CCCCNC(=O)COCCOCCNC(=O)COCCOCCNC(=O)CC[C@H](NC(=O)CCCCCCCCCCCCCCCCC(=O)O)C(=O)O)C(=O)N[C@@H](CCC(N)=O)C(=O)N[C@@H](CCCCN)C(=O)N[C@@H](CC(C)C)C(=O)N[C@@H](CC(C)C)C(=O)N[C@@H](CCCCN)C(=O)N[C@@H](CCC(N)=O)C(=O)N[C@@H](CCC(=O)O)C(=O)N[C@@H](CCCNC(=N)N)C(=O)N[C@@H](CCC(N)=O)C(=O)N[C@@H](CCCNC(=N)N)C(=O)N[C@@H](CCCCN)C(=O)NC(C)(C)C(=O)N[C@@H](CCCNC(=N)N)C(=O)N[C@@H](CCC(=O)O)C(=O)N[C@@H](CCC(N)=O)C(=O)N[C@@H](C)C(=O)N[C@@H](CCC(=O)O)C(=O)N[C@@H](CCCCN)C(=O)N[C@@H](CC(N)=O)C(=O)N[C@@H](CCCCN)C(=O)N[C@@H](CCCNC(=N)N)C(=O)N[C@H](C(=O)N[C@@H](CC(C)C)C(=O)N[C@@H](CCC(=O)O)C(=O)N[C@@H](CCCNC(=N)N)C(=O)N[C@H](C(N)=O)C(C)C)[C@@H](C)CC)[C@@H](C)O)C(C)C)C(C)C
Regarding B2, the “EC50 [nM], 0% HSA (cAMP, A7R5 cells)” value was 13.3 nM.

B3: peptide of SEQ ID NO: 18 (peptide)
peptide: IVLSLD[dV]PTKLK([γGlu-Palmitoyl])QKLLKQERQRKEREQAEKNKRILERV-NH2
modifications: N-terminus assumed
SMILES: CCCCCCCCCCCCCCCC(=O)N[C@@H](CCC(=O)NCCCC[C@H](NC(=O)[C@H](CC(C)C)NC(=O)[C@H](CCCCN)NC(=O)[C@@H](NC(=O)[C@@H]1CCCN1C(=O)[C@H](NC(=O)[C@H](CC(=O)O)NC(=O)[C@H](CC(C)C)NC(=O)[C@H](CO)NC(=O)[C@H](CC(C)C)NC(=O)[C@@H](NC(=O)[C@@H](N)[C@@H](C)CC)C(C)C)C(C)C)[C@@H](C)O)C(=O)N[C@@H](CCC(N)=O)C(=O)N[C@@H](CCCCN)C(=O)N[C@@H](CC(C)C)C(=O)N[C@@H](CC(C)C)C(=O)N[C@@H](CCCCN)C(=O)N[C@@H](CCC(N)=O)C(=O)N[C@@H](CCC(=O)O)C(=O)N[C@@H](CCCNC(=N)N)C(=O)N[C@@H](CCC(N)=O)C(=O)N[C@@H](CCCNC(=N)N)C(=O)N[C@@H](CCCCN)C(=O)N[C@@H](CCC(=O)O)C(=O)N[C@@H](CCCNC(=N)N)C(=O)N[C@@H](CCC(=O)O)C(=O)N[C@@H](CCC(N)=O)C(=O)N[C@@H](C)C(=O)N[C@@H](CCC(=O)O)C(=O)N[C@@H](CCCCN)C(=O)N[C@@H](CC(N)=O)C(=O)N[C@@H](CCCCN)C(=O)N[C@@H](CCCNC(=N)N)C(=O)N[C@H](C(=O)N[C@@H](CC(C)C)C(=O)N[C@@H](CCC(=O)O)C(=O)N[C@@H](CCCNC(=N)N)C(=O)N[C@H](C(N)=O)C(C)C)[C@@H](C)CC)C(=O)O
Consider B3, for which the “EC50 [nM], 0% HSA (cAMP, A7R5 cells)” value was determined as 0.02 nM.

B4: peptide of SEQ ID NO: 45 (peptide)
peptide: IVLSLDVPIKLK([AEEA-AEEA-γGlu-C18 diacid])QILLEQAKQK[Aib]LKAQAETNVRILERV-NH2
modifications: N-terminus assumed
SMILES: CC[C@H](C)[C@H](N)C(=O)N[C@H](C(=O)N[C@@H](CC(C)C)C(=O)N[C@@H](CO)C(=O)N[C@@H](CC(C)C)C(=O)N[C@@H](CC(=O)O)C(=O)N[C@H](C(=O)N1CCC[C@H]1C(=O)N[C@H](C(=O)N[C@@H](CCCCN)C(=O)N[C@@H](CC(C)C)C(=O)N[C@@H](CCCCNC(=O)COCCOCCNC(=O)COCCOCCNC(=O)CC[C@H](NC(=O)CCCCCCCCCCCCCCCCC(=O)O)C(=O)O)C(=O)N[C@@H](CCC(N)=O)C(=O)N[C@H](C(=O)N[C@@H](CC(C)C)C(=O)N[C@@H](CC(C)C)C(=O)N[C@@H](CCC(=O)O)C(=O)N[C@@H](CCC(N)=O)C(=O)N[C@@H](C)C(=O)N[C@@H](CCCCN)C(=O)N[C@@H](CCC(N)=O)C(=O)N[C@@H](CCCCN)C(=O)NC(C)(C)C(=O)N[C@@H](CC(C)C)C(=O)N[C@@H](CCCCN)C(=O)N[C@@H](C)C(=O)N[C@@H](CCC(N)=O)C(=O)N[C@@H](C)C(=O)N[C@@H](CCC(=O)O)C(=O)N[C@H](C(=O)N[C@@H](CC(N)=O)C(=O)N[C@H](C(=O)N[C@@H](CCCNC(=N)N)C(=O)N[C@H](C(=O)N[C@@H](CC(C)C)C(=O)N[C@@H](CCC(=O)O)C(=O)N[C@@H](CCCNC(=N)N)C(=O)N[C@H](C(N)=O)C(C)C)[C@@H](C)CC)C(C)C)[C@@H](C)O)[C@@H](C)CC)[C@@H](C)CC)C(C)C)C(C)C
On to B4, for which the “EC50 [nM], 0% HSA (cAMP, A7R5 cells)” value was found to be 47.3 nM.

The record behind these values is patent US12679878B2, “CRF2 receptor agonists and their use in therapy” (SANOFI, priority 2020, dated 2026).
